Assay results from patent publication US20250230248A1.
pEC50: −log10 of the molar value.

Key:
[1] = target: human C1q (human) (UniProt P02745)
[2] = target: recombinant human CD64 (human) (UniProt P12314)
[3] = target: recombinant human CD16a (human) (UniProt P08637)
[4] = target: recombinant human CD32a (human) (UniProt P12318)
recombinant human CD32a (human), sequence (P12318 34-217): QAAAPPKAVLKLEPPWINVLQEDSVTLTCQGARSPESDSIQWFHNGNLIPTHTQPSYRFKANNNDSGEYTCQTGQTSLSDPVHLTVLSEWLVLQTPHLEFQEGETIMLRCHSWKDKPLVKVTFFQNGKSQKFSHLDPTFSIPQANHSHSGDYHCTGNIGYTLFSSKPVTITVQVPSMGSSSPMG

recombinant human CD16a (human), sequence (P08637 17-208 limits assumed): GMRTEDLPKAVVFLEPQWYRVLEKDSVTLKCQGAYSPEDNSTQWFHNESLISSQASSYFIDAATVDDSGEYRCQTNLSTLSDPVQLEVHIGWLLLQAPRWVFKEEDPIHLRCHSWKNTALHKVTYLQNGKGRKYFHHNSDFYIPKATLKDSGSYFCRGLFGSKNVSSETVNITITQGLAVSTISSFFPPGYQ
recombinant human CD64 (human), sequence (P12314 16-288 limits assumed): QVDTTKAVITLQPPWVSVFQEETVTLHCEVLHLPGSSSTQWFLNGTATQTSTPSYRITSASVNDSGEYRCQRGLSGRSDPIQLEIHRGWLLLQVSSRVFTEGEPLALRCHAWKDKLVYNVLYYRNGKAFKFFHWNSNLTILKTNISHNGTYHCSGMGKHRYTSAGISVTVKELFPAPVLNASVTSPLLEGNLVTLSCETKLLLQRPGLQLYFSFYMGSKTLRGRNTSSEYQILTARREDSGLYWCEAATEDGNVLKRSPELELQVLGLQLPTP
human C1q (human), sequence (P02745 23-245 limits assumed, chain 1 of 3): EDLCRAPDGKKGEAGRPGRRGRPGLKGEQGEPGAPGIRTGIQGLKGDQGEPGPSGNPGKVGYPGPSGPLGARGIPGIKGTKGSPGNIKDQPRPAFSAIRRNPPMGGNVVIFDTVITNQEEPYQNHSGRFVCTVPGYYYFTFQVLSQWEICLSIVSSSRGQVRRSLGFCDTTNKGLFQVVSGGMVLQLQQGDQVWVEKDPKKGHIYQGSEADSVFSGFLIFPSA
human C1q (human), sequence (P02746 28-253 limits assumed, chain 2 of 3, further chain): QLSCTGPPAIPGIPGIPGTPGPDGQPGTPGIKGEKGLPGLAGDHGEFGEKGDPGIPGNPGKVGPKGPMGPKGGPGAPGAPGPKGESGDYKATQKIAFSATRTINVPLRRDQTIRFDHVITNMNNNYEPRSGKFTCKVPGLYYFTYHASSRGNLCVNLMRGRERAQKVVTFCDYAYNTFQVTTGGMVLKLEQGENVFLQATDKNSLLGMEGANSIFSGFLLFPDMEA
human C1q (human), sequence (P02747 29-245 limits assumed, chain 3 of 3, further chain): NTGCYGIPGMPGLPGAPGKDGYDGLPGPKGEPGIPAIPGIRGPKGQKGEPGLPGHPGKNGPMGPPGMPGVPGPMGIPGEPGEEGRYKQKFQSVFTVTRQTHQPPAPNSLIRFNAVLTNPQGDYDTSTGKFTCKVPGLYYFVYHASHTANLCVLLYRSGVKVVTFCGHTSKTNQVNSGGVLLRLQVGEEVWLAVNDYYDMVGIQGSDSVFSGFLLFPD

- pEC50 [1]: 7.85
- pEC50 [2]: 9.92
- pEC50 [3]: 8.43
- pEC50 [4]: 7.85
Substance: isotype mAb with human IgG1 (antibody)
